The values that follow come from the supplement of paper PMC9732359.

± gives the uncertainty stated by the source.

The data set in a line: protein stability index of a GFP-peptide fusion (yeast GPS) (PSI 1-4); higher = more stable; sorted into four equal gates, so the index is relative within each strain. The method in brief: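 Plasmids in a pooled yeast library fused tiled 17-residue yeast protein peptides downstream of GFP and also expressed Cherry. Mid-log cultures grown without leucine were sorted into four equal gates by GFP/Cherry fluorescence ratio. Each gate's plasmids were PCR-amplified and Illumina-sequenced, and reads were matched to strains by barcodes. The protein stability index is derived by multiplying each gate's read frequency by its gate number and summing the results.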

On to DLAVCATIIGIISTAIA [ECM29], for which the protein stability index is 1.95 ± 0.052 (doa10∆), 2.07 ± 0.043 (pdr5∆), 1.99 ± 0.054 (san1∆) and 1.95 ± 0.029 (ubr1∆).
For the sequence ENYSAMIFETIVDGKLK [FAS1], the protein stability index was 3.24 ± 0.22 (pdr5∆), 2.98 ± 0.13 (san1∆) and 3.09 ± 0.16 (ubr1∆).
As to DMQSSVDTGLQPQHPHY [YLR018C/POM34], the protein stability index reads like this: (doa10∆) 2.56 ± 0.043; (pdr5∆) 2.86 ± 0.039; (san1∆) 2.96 ± 0.036; (ubr1∆) 2.956 ± 0.029.
Taken in the same sequence, the figures for NIVDSSAAGNKAIPTFS [YIL149C/MLP2] were 2.31 ± 0.066, 2.44 ± 0.077, 3 ± 0.057 and 2.44 ± 0.059.
As to MDRTSLRKQYSAIDEEI [SMC3], the protein stability index reads like this: (doa10∆) 2.28 ± 0.21; (ubr1∆) 2.63 ± 0.25.
Take ISNNLALVFAALEHLKN [SRP68]: the protein stability index amounted to 1.95 ± 0.051 (doa10∆), 1.8 ± 0.041 (pdr5∆), 2.12 ± 0.052 (san1∆) and 2.09 ± 0.041 (ubr1∆).
For the sequence VSPNDNNSANNNAHSSD [YMR153W/NUP53], the protein stability index came out at 2.91 ± 0.05 (doa10∆), 2.84 ± 0.06 (pdr5∆), 2.75 ± 0.053 (san1∆) and 2.56 ± 0.037 (ubr1∆).
Take GFNSIWKIPQNDIPQTE [SSN2]: the protein stability index runs as follows: (doa10∆) 3.09 ± 0.19; (pdr5∆) 3.28 ± 0.28; (san1∆) 3.18 ± 0.15; (ubr1∆) 3.25 ± 0.076.
In the case of TAAFTAMICEAKGLIEN [YJR042W/NUP85], the protein stability index reads like this: (doa10∆) 2.62 ± 0.067; (pdr5∆) 2.86 ± 0.06; (san1∆) 2.72 ± 0.068; (ubr1∆) 2.94 ± 0.052.
Consider GTLEGHNGWVTSLATSA [ASC1], for which the protein stability index was determined as 2.61 ± 0.063 (doa10∆), 1.87 ± 0.069 (pdr5∆), 1.74 ± 0.15 (san1∆) and 1.67 ± 0.066 (ubr1∆).
In the case of ETRAELSQLCAVPLQIV [RPO21], the protein stability index is, setting by setting: (doa10∆) 1.96 ± 0.087; (pdr5∆) 2.32 ± 0.14; (san1∆) 2.24 ± 0.21; (ubr1∆) 2.71 ± 0.19.
For the sequence GLFGNKPALGSLGSSST [YGR119C/NUP57], the protein stability index runs as follows: (doa10∆) 3.34 ± 0.089; (pdr5∆) 2.63 ± 0.084; (san1∆) 2.77 ± 0.048; (ubr1∆) 3.21 ± 0.18.
Take VANQTSATFLRIVGSEL [RPT2]: the protein stability index reads like this: (doa10∆) 2.45 ± 0.12; (pdr5∆) 2.29 ± 0.096; (san1∆) 2.15 ± 0.15; (ubr1∆) 2.13 ± 0.082.
The like results for LKFLYLLDAYSHIESDS [MED1] were, in that order, 2.46 ± 0.091, 2.44 ± 0.075, 2.8 ± 0.061 and 2.64 ± 0.057.
In turn, LRKNKLGYARFILLDRL [SMC4] had a protein stability index (doa10∆) of 1.15 ± 0.042, a protein stability index (pdr5∆) of 1.25 ± 0.048, a protein stability index (san1∆) of 1.14 ± 0.14 and a protein stability index (ubr1∆) of 1.15 ± 0.055.
For the sequence NGIPLKSKERSSQFVRL [YMR129W/POM152], the protein stability index (doa10∆) amounted to 2.75 ± 0.15, the protein stability index (pdr5∆) was 2.6 ± 0.14, the protein stability index (san1∆) is 3.22 ± 0.096 and the protein stability index (ubr1∆) was determined as 2.85 ± 0.075.
For the sequence TFLPPLLLKLASPHASV [ECM29], the protein stability index was found to be 1.63 ± 0.039 (doa10∆), 1.8 ± 0.04 (pdr5∆), 1.66 ± 0.061 (san1∆) and 1.41 ± 0.027 (ubr1∆).
Sequence FQVSNVISLGPNLATFI [YJL039C/NUP192] showed a protein stability index (doa10∆) of 1.76 ± 0.14, a protein stability index (pdr5∆) of 1.99 ± 0.11 and a protein stability index (ubr1∆) of 2.17 ± 0.054.
Take RSVRIPWYNNPVSCIIQ [PRP8]: the protein stability index runs as follows: (doa10∆) 2.33 ± 0.1; (pdr5∆) 2.19 ± 0.068; (san1∆) 2.02 ± 0.16; (ubr1∆) 2.55 ± 0.06.
For the sequence KGRYAPETGDHVVGRIA [RRP4], the protein stability index came to 3.03 ± 0.08 (doa10∆), 3.21 ± 0.08 (pdr5∆), 2.6 ± 0.11 (san1∆) and 2.67 ± 0.11 (ubr1∆).
For the sequence QIMQNPTHYKIPAWFLN [RPS18A], the protein stability index runs as follows: (doa10∆) 2.02 ± 0.072; (pdr5∆) 1.99 ± 0.071; (san1∆) 1.66 ± 0.084; (ubr1∆) 1.6 ± 0.048.
IHEIDERLAKVNEMNDQ [NNF1]: the protein stability index came to 1.37 ± 0.089 (doa10∆), 2.51 ± 0.14 (pdr5∆), 1.63 ± 0.12 (san1∆) and 1.96 ± 0.061 (ubr1∆).
Turning to INYHQYISKAQNDQWSI [SSN2], the protein stability index reads like this: (doa10∆) 2.63 ± 0.058; (pdr5∆) 2.83 ± 0.053; (san1∆) 2.56 ± 0.051; (ubr1∆) 2.73 ± 0.056.
For LEYYAMLSKTKVYYFQG [RPL30], the protein stability index is 2.4 ± 0.096 (doa10∆), 3.08 ± 0.1 (pdr5∆), 2.09 ± 0.079 (san1∆) and 2.89 ± 0.13 (ubr1∆).
As to FGKTTANLPANSSTSPA [YLR335W/NUP2], the protein stability index is, setting by setting: (doa10∆) 3.01 ± 0.047; (pdr5∆) 3.14 ± 0.058; (san1∆) 2.96 ± 0.045; (ubr1∆) 3.12 ± 0.035.
The sequence NSAIANEQEEKSEEVKA [RPC37] displayed a protein stability index (doa10∆) of 2.61 ± 0.08, a protein stability index (pdr5∆) of 2.79 ± 0.11, a protein stability index (san1∆) of 2.61 ± 0.055 and a protein stability index (ubr1∆) of 2.62 ± 0.08.
